Columns and labels:
[1] = test system: human pluripotent stem cells; experiment: Replacement of FGF2 by other FGFs in Stage 1 differentiation; type: cell-based; details: FGF used in Stage 1 medium
Source text: In some embodiments, the FGF used in Stage 1 is selected from the group consisting of FGF2, FGF4, FGF7, FGF10 and the mixtures thereof. […] Thus, one would use any one of FGF4, FGF7 and FGF10 to replace FGF2 in Stage 1. One may also use mixtures of two or more of FGF2, FGF4, FGF7 and FGF10 in this stage. In a specific embodiment, the FGF in Stage 1 is FGF2.

[2] = test system: PDX1, NKX6.1, Neurogenin 3 and insulin gene expression; experiment: QPCR gene expression of endoderm and pancreatic markers in differentiated cells; type: cell-based, human
Experimental: QPCR was performed at the end of Stage 4 ([…] Day 18) to examine gene expression of PDX1, a marker of pancreatic epithelium and progenitor cells, insulin, a marker of beta cells, and Sox9 which is expressed in the developing pancreatic epithelium. The gene expression is compared to undifferentiated cells collected at Day 0 and β-Actin is the internal control. […] Human Fetal Pancreas (HFP), gestation 14-20 weeks, is represented as a positive control.
In FIG. 19, the gene expression is compared to undifferentiated cells collected at Day 0 and B-Actin is the internal control. On the y axis is delta CT (instead of fold change), thus, the lower the value the greater the gene expression.
First, alterations at Stage 3 and 4 altered gene expression minimally. […] On the y axis is delta CT (instead of fold change), thus, the lower the value the greater the gene expression. […] In contrast the addition of Noggin at Stage 4, decreased PDX1 and NKX6.1 gene expression and increased Neurogenin 3 expression. There was no difference in insulin gene expression following the addition of Noggin to Stage 4.

[3] = test system: PDX1 and insulin protein expression in H1 cells; experiment: Flow cytometry of PDX1 and insulin protein expression at end of Stage 4; type: cell-based, human
Source text: To quantify insulin and PDX1 protein expression we optimized a flow cytometry assay. […] The INS-1 cell line is an immortalized pancreatic beta cell line that expresses both PDX1 and insulin. On the bottom left, is our negative control, unstained H1 cells differentiated for 18 days. On the right, is H1 cells differentiated by the current protocol through day 18 stained with Insulin-PB and PDX1-AF488. […] Only 8-11% of the cells are PDX1 and insulin double positive.
To examine protein expression we collected cells at the end of Stage 4 and examined them by flow cytometry.
Thus, the effect of Noggin is context dependent and synergistic with nicotinamide and Exendin-4.

[4] = test system: insulin protein expression; experiment: Immunohistochemistry of insulin protein expression after Stage 4; type: cell-based, human; details: addition of Noggin at Stage 4
Experimental: Immunohistochemistry was performed at the end of Stage 4 (Day 18) to examine protein expression of Insulin and NKX6.1.

B1: FGF4: fibroblast growth factor family ligand (protein, UniProt P08620 31-206, looked up)
Fibroblast growth factor 4: APTAPNGTLEAELERRWESLVALSLARLPVAAQPKEAAVQSGAGDYLLGIKRLRRLYCNVGIGFHLQALPDGRIGGAHADTRDSLLELSPVERGVVSIFGVASRFFVAMSSKGKLYGSPFFTDECTFKEILLPNNYNAYESYKYPGMFIALSKNGKTKKGNRVSPTMKVTHFLPRL
[1]
  effects in Stage 1 relative to FGF2: comparable to FGF2

B2: FGF10: fibroblast growth factor family ligand (protein, UniProt O15520 38-208, looked up)
Fibroblast growth factor 10: QALGQDMVSPEATNSSSSSFSSPSSAGRHVRSYNHLQGDVRWRKLFSFTKYFLKIEKNGKVSGTKKENCPYSILEITSVEIGVVAVKAINSNYYLAMNKKGKLYGSKEFNNDCKLKERIEENGYNTYASFNWQHNGRQMYVALNGKGAPRRGQKTRRKNTSAHFLPMVVHS
[1]
  effects in Stage 1 relative to FGF2: comparable to FGF2

B3: FGF7: fibroblast growth factor 7 (protein, UniProt P21781 32-194, looked up)
Fibroblast growth factor 7: CNDMTPEQMATNVNCSSPERHTRSYDYMEGGDIRVRRLFCRTQWYLRIDKRGKVKGTQEMKNNYNIMEIRTVAVGIVAIKGVESEFYLAMNKEGKLYAKKECNEDCNFKELILENHYNTYASAKWTHNGGEMFVALNQKGIPVRGKKTKKEQKTAHFLPMAIT
[1]
  effects in Stage 1 relative to FGF2: comparable to FGF2

B4: Noggin: a protein which in humans is encoded by the NOG gene; inhibits TGF-β signal transduction (protein, UniProt Q13253 28-232, looked up)
Noggin: QHYLHIRPAPSDNLPLVDLIEHPDPIFDPKEKDLNETLLRSLLGGHYDPGFMATSPPEDRPGGGGGAAGGAEDLAELDQLLRQRPSGAMPSEIKGLEFSEGLAQGKKQRLSKKLRRKLQMWLWSQTFCPVLYAWNDLGSRFWPRYVKVGSCFSKRSCSVPEGMVCKPSKSVHLTVLRWRCQRRGGQRCGWIPIQYPIISECKCSC
[2]; addition of Noggin at Stage 4
  NKX6.1 gene expression: decreased
  Neurogenin 3 expression: increased
  PDX1 gene expression: decreased
[2]; addition of Noggin to Stage 4
  insulin gene expression: no difference
[3]; Noggin in the context of ITSFINE
  double positive cells: increases double positive cells
[3]; addition of Noggin at Stage 4 (ITSFINE)
  insulin expression: increases insulin expression
[3]; addition of Noggin in the absence of nicotinamide and Exendin-4 (ITSFI)
  double positive cells: does not further increase the double positive cells
[4]
  clustering and insulin protein expression: increased clustering and insulin protein expression
  hormonal status of insulin-expressing cells: a majority of those cells are still polyhormonal
